In PMC6727974 (Nature microbiology, 2018):

Columns and labels:
[1] = molecular target: EV-D68 A-particle (strain STL-2014-12) (Enterovirus D68, STL-2014-12 (KM881710), strain); assay: cryo-EM structure
[2] = molecular target: T1, EV-D68 capsid protein VP1 (strain STL-2014-12) (Enterovirus D68, STL-2014-12 (KM881710), strain); assay: cryo-EM structure
T1 chain: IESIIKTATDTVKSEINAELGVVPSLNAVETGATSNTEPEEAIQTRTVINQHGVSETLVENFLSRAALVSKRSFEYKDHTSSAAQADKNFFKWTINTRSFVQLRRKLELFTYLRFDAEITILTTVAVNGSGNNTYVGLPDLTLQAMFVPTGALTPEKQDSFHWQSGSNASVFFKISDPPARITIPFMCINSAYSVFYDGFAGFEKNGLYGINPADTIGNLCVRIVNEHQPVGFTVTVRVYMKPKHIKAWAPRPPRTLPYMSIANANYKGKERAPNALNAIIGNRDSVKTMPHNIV

[3] = molecular target: T2, EV-D68 capsid protein VP3 (strain STL-2014-12) (Enterovirus D68, STL-2014-12 (KM881710), strain); assay: cryo-EM structure
T2 chain: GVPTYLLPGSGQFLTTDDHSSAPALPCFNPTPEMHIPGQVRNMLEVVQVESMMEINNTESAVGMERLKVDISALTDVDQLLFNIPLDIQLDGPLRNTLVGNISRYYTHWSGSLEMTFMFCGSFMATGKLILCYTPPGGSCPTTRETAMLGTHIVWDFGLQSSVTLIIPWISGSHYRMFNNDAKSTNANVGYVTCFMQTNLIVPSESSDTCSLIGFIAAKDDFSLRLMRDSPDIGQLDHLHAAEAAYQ

[4] = molecular target: T3, EV-D68 capsid protein VP2 (strain STL-2014-12) (Enterovirus D68, STL-2014-12 (KM881710), strain); assay: cryo-EM structure
T3 chain: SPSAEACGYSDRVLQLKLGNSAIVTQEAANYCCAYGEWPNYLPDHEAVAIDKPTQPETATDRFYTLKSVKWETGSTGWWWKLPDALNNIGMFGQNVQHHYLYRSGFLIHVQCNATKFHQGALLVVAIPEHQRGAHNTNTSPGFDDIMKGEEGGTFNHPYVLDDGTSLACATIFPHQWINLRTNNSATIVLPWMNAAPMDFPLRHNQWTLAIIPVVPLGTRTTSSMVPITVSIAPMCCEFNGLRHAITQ

[5] = molecular target: T4, EV-D68 procapsid (strain STL-2014-12) (Enterovirus D68, STL-2014-12 (KM881710), UniProt A0A097F8Q2;PDB, strain); assay: cryoEM with 2D classification
[6] = molecular target: T4, EV-D68 procapsid (strain STL-2014-12); assay: ELISA

B1: Fab 11G1 (Fab, V domains shown)
VH: QVQLQQSGAELVRPGVSVKISCKGSGYIFTDYVMHWVKQSHSKSLEWIGVISTYYGDGSYNQKFKGKATMTVDKSSSTAYMELARLTSEDSAIYYCVRGENYYGVSGTMDYWGQGTSVTVSS
VL: DIVMSQSPSSLAVSVGEKVTMSCKSSQSLLYSNNQKNYLAWYQQKPGQSPQLLIYWASTRESGVPDRFTGSESGTDFTLTISSVKAEDLAVFYCQQYYNYPWTFGGGTKLEIK
Q: What does the source list for B1?
A: stoichiometry N [1]: 60 copies per particle; binding result [2]: binds

B2: Fab 15C5 (Fab, V domains shown)
VH: QVQLQQSGTELAKPGASVKMSCKASGYTFTNYWMHWFKQRPGQGLEWIGYVNPNTDYTDYNHKFKDKATLTADKSSSTAYMQLSSLTSEDSAVYFCARGTFGNYASFAYWGQGTLV
VL: DIQMIQSPSSMFASLGDRVSLSCRASQDIRGNLDWYQQKPGGTIKLLIYSTSNLNSGVPSRFSGSGSGSDYSLTISSLESEDFADYYCLQRNAYPLTFGGGTKLEIK
Q: Which results are given for B2?
A: stoichiometry N [1]: 60 copies per particle; binding result [3]: binds; binding result [4]: binds; binding result [5]: binds

B3: monoclonal antibody 15C5 (antibody, V domains shown)
VH: B2 VH
VL: B2 VL
Q: Does B3 bind [6]?
A: binds
